No end group written: not given here.
What was measured:
SW480 tumor spheroids = experiment: Cell viability (MTS) of SW480 tumor spheroids cultured in hydrogels; format: cell-based, human; conditions: Day 7; hybrid hydrogels peptide_0.25%/G_3% (FIG. 12B)
Protocol: Human hepatocellular carcinoma HepG2 and human colorectal adenocarcinoma SW480 were cultivated in Dulbecco's Modified Eagle Medium (DMEM), supplemented by 10% Fetal Bovine Serum and 1% Penicillin, incubated at 37° C., 5% CO2. To prepare the tumor spheroids, 200 μL of cell suspension (3500 cells/mL) were seeded per well onto 96-well ultralow adhesion round bottom plates (Corning, U.S.A.). After which, the plate was centrifuged for 5 min at 1500 rpm) and incubated at 37° C. for 2-3 days for the cells to assemble into tumor spheroids. The IVK8/gelatin hydrogels were then prepared according to the steps in Section 2.2 and was used right after mixing the peptide and gelatin together. A positive control group was set up using the basement membrane product, Geltrex™ (Thermofisher, U.S.A.). Geltrex was kept in an ice bath during the experiment. The hydrogels were transferred to the tumor spheroids by first removing 150 μL of the spent medium. Subsequently, 70 μL of the hydrogels were added per well and the samples and incubated at 37° C. for 30 min before 100 μL were added to each well. The spent medium was replaced once every 2 to 3 days by removing 80 μL medium and adding 80 μL fresh medium. The growth of the tumor spheroids was monitored over time using DMil inverted light microscope (Leica, U.S.A.).
The viability of tumor spheroids cultured in the hydrogels for 7 days was determined by the CellTiter 96 AQueous One Solution Cell Proliferation Assay (MTS) (Promega, U.S.A.). Briefly, 80 μL of the spent medium was removed from each well containing the tumor spheroids. Next, 80 μL containing DMEM: MTS at 1:1 volume ratio was then added back into the wells. The plate was then incubated at 37° C. for 4.5 h. After which, the medium was pipetted several times to break up any aggregates that may be present and 100 μL of this solution was transferred to a fresh 96 well plate. The absorbance of the samples was measured at wavelength 490 nm using a microplate reader (Tecan, Switzerland).

[1] = Transparency and clarity of hydrogels (tube images, light microscopy); format: physicochemical; conditions: SW480 spheroids Day 7 (FIG. 13)
Protocol: IVK8 was dissolved in 300 mM sucrose sterile solution at a peptide concentration of 1.0% wt/vol. and stored at 4° C. until required. The peptide remains a solution at cold conditions (4° C. or ice bath). Gelatin was dissolved using sterile DI water at 60 mg/ml at 60° C. To form the hydrogel, gelatin was removed from the warm water bath and the cold IVK8 solution was added to the gelatin. DMEM was then added to this mixture at a volume ratio of 3:7 DMEM: mixture and was left to stand at 37° C. for 10 min for gelation to occur. The procedure for preparing IVK8 hydrogels was the same. Once formed, the gels remain stable at temperatures between 25 to 37° C. Similarly, the other peptide/gelatin hydrogels may be prepared by the same method described for IVK8, further detail and modifications of the general procedure may be found in WO2021015675. For example. IIK8, ILK8, IVK12, and IIK12 may be used instead of IVK8 to prepare the peptide/gelatin hydrogel. It may be observed from FIGS. 10A to 10 that shorter peptides result in clearer hydrogels. […] The high opacity of IVK12_0.25%/Gelatin_3% (FIG. 11D) and IIK12_0.25%/Gelatin_3% (FIG. 11E) may make them less suitable for 3D culture of tumor spheroid due to difficulties in observing the spheroids.

[2] = Gelation time by vial tilting method; format: physicochemical; conditions: 2% wt/vol.
Protocol: Vial tilting method was applied to determine the gelation time of the hydrogels. […] Rheology experiments were performed on a control-strain rheometer (ARES G2, TA instruments), as described previously. Briefly, a parallel plate measuring geometry (8 mm diameter, gap 1 mm) with oscillatory strain of 1% and the dynamic storage modulus (G′) and loss modulus (G″) were examined as a function of frequency from 1 to 100 rad/s. In addition, a flow sweep to study the viscosity changes as a function of shear rate of hydrogel samples.

[3] = Water retention of IVK8 peptide hydrogel; format: physicochemical; conditions: peptide hydrogel in water at high concentrations

| Sequence | cell viability of SW480 tumor spheroids compared to Geltrex (SW480 tumor spheroids) | opacity of peptide/gelatin hybrid hydrogel in spheroid culture [1] | gelation time ([2]; 37° C.) | gelation time ([2]; room temperature (23-24° C.)) [min] | water retention [3] [%] |
| --- | --- | --- | --- | --- | --- |
| IEIEIRIK (IEIEIRIK-NH2) [IIK8, self-assembling peptide] | no significant difference | least opaque |  |  |  |
| IELEIRLK (IELEIRLK-NH2) [ILK8, self-assembling peptide] | no significant difference | more opaque |  |  |  |
| IEVEIRVK (IEVEIRVK-NH2) [IVK8, self-assembling peptide] | no significant difference | least opaque | less than 30 min | ≤ 60 | ~99 |
| IRIKIEIEIRIK (IRIKIEIEIRIK-NH2) [IIK12, self-assembling peptide] | significantly lower viability | more opaque |  |  |  |
| IRVKIEVEIRVK (IRVKIEVEIRVK-NH2) [IVK12, self-assembling peptide] | significantly lower viability | most opaque |  |  |  |

From patent US20240352093A1, “PEPTIDE AND GELATIN HYBRID HYDROGELS AS ECONOMICAL ALTERNATIVES TO COMMON BASEMENT-MEMBRANE MATRICES” (AGENCY FOR SCIENCE, TECHNOLOGY AND RESEARCH, priority 2021, published 2024)
